{"source": "paper PMC4880302", "key": {"[1]": {"target": "RPM-1 chimeric HMPV/RSV F protein (HMPV F with the grafted RSV site A/II palivizumab/motavizumab epitope) (human metapneumovirus, B2 strain)", "assay": "SEC; gel filtration of complexes made of RPM-1 and Fab"}, "[2]": {"target": "RPM-1 chimeric HMPV/RSV F protein (HMPV F with the grafted RSV site A/II palivizumab/motavizumab epitope) (human metapneumovirus, B2 strain)", "assay": "SPR; BiOptix 404pi; F proteins captured on NiHC1000m chip through their C-terminal His tag to 120 RU; Fab injected at 300 to 0.14 nM, 100 ul/min; 10 mM HEPES pH 7.2, 150 mM NaCl, 0.005% Tween 20, 50 uM EDTA; simple Langmuir model"}}, "data": [{"binder": "motavizumab Fab (affinity-matured variant of palivizumab, anti-RSV F site II/A) (Fab, V domains shown) VH: QVTLRESGPALVKPTQTLTLTCTFSGFSLSTAGMSVGWIRQPPGKALEWLADIWWDDKKHYNPSLKDRLTISKDTSKNQVVLKVTNMDPADTATYYCARDMIFNFYFDVWGQGTTVTVSS VL: DIQMTQSPSTLSASVGDRVTITCSASSRVGYMHWYQQKPGKAPKLLIYDTSKLASGVPSRFSGSGSGTEFTLTISSLQPDDFATYYCFQGSGYPFTFGGGTKVEIK", "values": [{"measurement": "stoichiometry N (Fabs per F trimer)", "setting": "[1]", "result": 3}, {"measurement": "Kd", "setting": "[2]", "result": 7.11, "unit": "pM"}, {"measurement": "koff", "setting": "[2]", "result": "1.8e-05", "unit": "s⁻¹"}, {"measurement": "kon", "setting": "[2]", "result": "2.41e+06", "unit": "M⁻¹ s⁻¹"}, {"measurement": "t1/2", "setting": "[2]", "result": 10.9, "unit": "h"}]}]}
